Test results published in paper PMC5855441, “Detection of Thrombin Based on Fluorescence Energy Transfer between Semiconducting Polymer Dots and BHQ-Labelled Aptamers”.

Target: thrombin (UniProt P00734;P00734 328-363;364-622)
Assay: fluorescence turn-on (FRET Pdots to BHQ-aptamer); 130 nM thrombin, Pdots present; F/F0 = 6.5; Buffer, salt and pH not given in the material (Hepes listed as reagent); incubation 60 min; Pdots-BHQ-TBA quenching plot at 298 K

GGTTGGTGTGGTTGG (ssDNA) [BHQ-TBA (BHQ-labelled thrombin aptamer)]
binding result: binds
